Earlier results on one substance are cited in paper PMC5587394.

In general, Kd refers to a measure of binding affinity in units of concentration.

In the series the target is FGF20 (Homo sapiens) (UniProt Q9NP95).

Sequence of FGF20 (Q9NP95 whole entry): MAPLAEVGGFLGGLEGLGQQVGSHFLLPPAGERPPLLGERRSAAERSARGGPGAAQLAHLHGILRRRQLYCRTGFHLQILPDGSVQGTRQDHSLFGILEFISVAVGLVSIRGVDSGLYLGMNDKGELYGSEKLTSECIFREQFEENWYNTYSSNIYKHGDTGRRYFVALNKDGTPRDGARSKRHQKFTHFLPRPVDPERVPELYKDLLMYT

For FGF20 (from UniProt Q9NP95), the Kd was 100 nM.
